In patent US11110115B2, “Nucleic acid molecule with anti-inflammatory and anti-coagulant and organ-protective properties” (APTAHEM AB, priority 2017, dated 2021):

Tests used:
[1] = tested on: CD11b+CD14+ white blood cells; assay: Flow cytometry of CD11b and CD14 on white blood cells after LPS injection; type: in vivo, C57BL/6 mice; settings: 2 h after LPS
Method: (§1) Female C57BL/6 mice (Taconic Biosciences) were 8 weeks of age at the start of the study. Animals had free access to autoclaved and acidified drinking water. Animals were housed under standard laboratory conditions, air conditioned and filtered with adequate fresh air supply. Animals were kept in a climate controlled environment.
SEQ ID NO:2 (Biospring) (100 mg) was dissolved in 5 ml saline to form a stock solution of 20 mg/ml. Vehicle is saline solution.
Dexamethasone stock was prepared by mixing dexamethasone and beta-cyclodextrin at a 4:96 ratio, solubilized in PBS at 2 mg dexamethasone/mL and stored at −20° C. Dosing solution of dexamethasone was prepared by diluting the stock solution to 1 mg/mL with PBS. Dexamethasone administered at 5 to 10 mg/kg, i.p. is used as a positive control for suppression of the immune response.
Two hours after LPS injection mice were bled and blood samples were taken. Flow cytometry study was performed on BD FACSCalibur (lasers: 488 nm; 635 nm and UV). In our study we measured the expression of integrin Mac-1 (CD11b/18) on leukocytes by means of flow cytometry. Expression of CD11b on all leukocytes monocytes and granulocytes were assessed by flow cytometry using double fluorescence staining (CD 45/CD11b).

[2] = Fibrinogen and D-dimer analysis of plasma in LPS-induced shock; type: in vivo, C57BL/6 mice; settings: blood at Hour 28
Method: In this study, female C57BL/6 mice of 10-12 weeks old (Taconic Biosciences) were used. Animals had free access to autoclaved and acidified drinking water. Animals were housed under standard laboratory conditions, air conditioned and filtered with adequate fresh air supply. Animals were kept in a climate-controlled environment. Lipopolysaccharide (LPS) from E. coli (O111:B4) was diluted in PBS. SEQ ID NO:2 was stored in powder form at 4° C. until use. Powder was added to saline and vortexed into solution to prepare SEQ ID NO:2 stock solution. […] For all other groups, LPS was injected intraperitoneally at 10 mg/kg. Mice were intravenously injected 15 minutes and 60 minutes after LPS administration with SEQ ID NO:2 at concentrations of 10, 25, 50 and 100 mg/kg. Except group 7, which was intravenously injected once at 15 minutes and once at 120 minutes after LPS administration. Blood collected at Hour 28 was analysed for fibrinogen and D-dimer analysis from citrated plasma performed by IDEXX Laboratories, Inc. (N. Grafton, Mass.). Hook Laboratories attempted to collect enough blood to run each analysis 5 times for each group, but in one case (citrated plasma for D-dimer, for Group 4) we were able to collect only enough blood to run the analysis 4 times.

[3] = Comparable ex vivo APTT study, human
[4] = Comparable ex vivo APTT study, mouse
[5] = Arteriovenous shunt model, thrombus weight; type: in vivo, Sprague-Dawley male rats; settings: SEQ ID NO:2 33.3 mg/kg i.v. 5 min prior; Rivaroxaban 10 mg/kg p.o. 90 min prior; 15 min extracorporeal circulation
Method: This study was conducted at Shanghai WuXi AppTec Co., Ltd., and in accordance with WuXi IACUC standard animal procedures along with the IACUC guidelines that are in compliance with the Animal Welfare Act, the Guide for the Care and Use of Laboratory Animals, and the Office of Laboratory Animal Welfare (OLAW). Sprague-Dawley male rats with body weight ranging between 150-200 g (Vital River; Bejing, P.R. China) were fed ad libitum a rodent diet. Animals had free access to autoclaved and acidified drinking water. Animals were housed under standard laboratory conditions, air conditioned and filtered with adequate fresh air supply. Animals were kept in a climate controlled environment. Rivaroxaban (10 mg/kg) has been dissolved in water and stored at 4° C. 20 mg SEQ ID NO:2 (Biospring) was dissolved in 3 ml Saline, vortexed for 5 min., sonicated with a water bath ultrasonic for 1 minute to achieve 6.66 mg/ml SEQ ID NO:2. The animals were assigned to 3 dosing groups according to the body weight (see table 2). […] Extracorporeal circulation was maintained for 15 min, the thrombus weight formed on the thread was calculated by subtracting the average weight of the rough nylon thread. Significance of difference between control and treated groups was analyzed by performing analysis of variance (ANOVA) by EXCEL office software.

[6] = LPS-induced mortality, survival assay; type: in vivo, C57BL/6 mice; settings: 72 hours
Method: as §1, with “In this study, female” for “Female”, “mice of 10-12 weeks old” for “mice”, “used.” for “8 weeks of age at the start of the study.”
Lipopolysaccharide (LPS) from E. coli (O111:B4) was diluted in PBS.
SEQ ID NO:2 was stored in powder form at 4° C. until use. Powder was added to saline and vortexed into solution to prepare SEQ ID NO:2 stock solution.
For all other groups, LPS was injected intraperitoneally at 10 mg/kg. Mice were intravenously injected 15 minutes and 60 minutes after LPS administration with SEQ ID NO:2 at concentrations of 10, 25, 50 and 100 mg/kg. Except group 6, which was intravenously injected once at 15 minutes and once at 120 minutes after LPS administration.
When high doses of LPS are administered, animals will suffer LPS-induced shock and mortality may be observed. For 72 hours after LPS injection, mice were checked for mortality several times each day. All surviving mice were euthanized at the end of the study (day 3).

B1: SEQ ID NO:2: nucleic acid sequence of SEQ ID NO:1 in which each C and U is fluorinated to increase stability in plasma (nucleic acid)
chain: GGGAAUUCGAGCUCGGUACCAACAAUACGACUACACCAUCAAAAGUAUUAUCUUGCAUCGAAGGUUGGCACGUAGCAAGCUCUGCAGUCG
modifications: fluorinated C and U; (6)..(7) uracil is fluorinated; (8)..(8) cytosine is fluorinated; (12)..(12) cytosine is fluorinated; (13)..(13) uracil is fluorinated; (14)..(14) cytosine is fluorinated; (17)..(17) uracil is fluorinated; (19)..(20) cytosine is fluorinated; (23)..(23) cytosine is fluorinated; (26)..(26) uracil is fluorinated; (28)..(28) cytosine is fluorinated; (31)..(31) cytosine is fluorinated; (32)
expression of CD11b compared to vehicle group ([1]; 5 mg/kg i.v.): similar
proportion of CD11b+CD14+ cells in white blood cells compared to vehicle group ([1]; 5 mg/kg i.v.): similar
proportion of CD11b+CD14+ cells in white blood cells compared to vehicle group ([1]; 25 mg/kg i.v.): significantly lower
expression of CD11b compared to vehicle group ([1]; 25 mg/kg i.v., not statistically significant): lower
lower expression of CD11b, difference to vehicle group ([1]; 50 mg/kg i.v.): statistically significant
proportion of CD11b+CD14+ cells in white blood cells compared to vehicle group ([1]; 50 mg/kg i.v.): significantly lower
Plasma D-dimer concentrations compared to vehicle treated group ([2]; 50 mg/kg at 60 and 120 minutes after LPS): significantly lower
Plasma D-dimer concentrations compared to vehicle treated group ([2]; 50 mg/kg at 60 and 120 minutes after LPS, listed as Apta-1): greatest reductions
Plasma D-dimer concentrations compared to vehicle treated group ([2]; 100 mg/kg at 15 and 60 min after LPS): significantly lower
D-dimer in plasma, dose dependence ([2]; 10, 25, 50, 100 mg/kg i.v. after LPS): reduced D-dimer in a dose dependent manner
fibrinogen concentrations in plasma compared to vehicle treated mice ([2]; SEQ ID NO:2 treated mice (10, 25, 50, 100 mg/kg i.v.)): no significant differences
positive effect on APTT [3]: confirmed
positive effect on APTT [4]: confirmed
thrombus weight, less than vehicle group [5]: 48.1%
survival compared to vehicle treated mice ([6]; 25 mg/kg i.v. twice after LPS 10 mg/kg i.p.): significantly improved
survival compared to vehicle treated mice ([6]; 50 mg/kg i.v. twice after LPS 10 mg/kg i.p.): significantly improved
survival compared to vehicle treated mice ([6]; 100 mg/kg i.v. twice after LPS 10 mg/kg i.p.): significantly improved
